± gives the standard deviation of the averaged measurements.
Assay: total protein half-life in vivo (active degradation + dilution); higher = more stable protein
[1] = E. coli NCM3722 delta-clpP delta-lon delta-hslV, growth: N-lim chemostat, doubling time 6 h
[2] = E. coli NCM3722 delta-clpP, growth: N-lim chemostat, doubling time 6 h
[3] = E. coli NCM3722 delta-hslV, growth: N-lim chemostat, doubling time 6 h
[4] = E. coli NCM3722 delta-lon, growth: N-lim chemostat, doubling time 6 h
[5] = E. coli NCM3722 delta-smpB, growth: N-lim chemostat, doubling time 6 h
[6] = wild type E. coli NCM3722, growth: C-lim chemostat, doubling time 6 h
[7] = wild type E. coli NCM3722, growth: C-lim chemostat, doubling time 12 h
[8] = wild type E. coli NCM3722, growth: N-lim chemostat, doubling time 6 h
[9] = wild type E. coli NCM3722, growth: N-lim chemostat, doubling time 12 h
[10] = wild type E. coli NCM3722, growth: P-lim chemostat, doubling time 6 h
[11] = wild type E. coli NCM3722, growth: P-lim chemostat, doubling time 12 h
[12] = wild type E. coli NCM3722, growth: C-lim chemostat, doubling time 3 h

| Sequence | total protein half-life in vivo [1] | total protein half-life in vivo [2] | total protein half-life in vivo [3] | total protein half-life in vivo [4] | total protein half-life in vivo [5] | total protein half-life in vivo [6] | total protein half-life in vivo [7] | total protein half-life in vivo [8] | total protein half-life in vivo [9] | total protein half-life in vivo [10] | total protein half-life in vivo [11] | total protein half-life in vivo [12] |
| --- | --- | --- | --- | --- | --- | --- | --- | --- | --- | --- | --- | --- |
| MNYRIIPVTAFSQNCSLIWCEQTRLAALVDPGGDAEKIKQEVDDSGLTLMQILLTHGHLDHVGAAAELAQHYGVPVFGPEKEDEFWLQGLPAQSRMFGLEECQPLTPDRWLNEGDTISIGNVTLQVLHCPGHTPGHVVFFDDRAKLLISGDVIFKGGVGRSDFPRGDHNQLISSIKDKLLPLGDDVIFIPGHGPLSTLGYERLHNPFLQDEMPVW | 4.63 ± 0.21 h | 5.7 ± 1.5 h | 3.09 ± 0.2 h | 4.23 ± 0.31 h | 3.17 ± 0.34 h | 6.22 ± 1.2 h | 9.88 ± 0.89 h | 3.73 ± 0.55 h | 4.36 ± 0.79 h | 5.05 ± 0.39 h | 9.46 ± 1.1 h | – |
| MKIAFIGEAVSGFGGMETVIRDVITTFRQQHIQSEMFFFCRNDKMDKGWLEGIKYSCSFSNIRLGFLRRAKHIHALSKWLQEYQPDIVICIDVISCLFAAKARKKSGIDMPVFSWPHFSLDHKKHAEYITCADYHLAISSGIKQQMINRGVAESTINVIFNPVETKDSVIPAPEEGETATFIYVGRMKFEGQKRVKDLLDGLSQAKGNWKLHVLGDGSDFEKCQAYGRELNIDDRIVWYGWQQYPWELVQQDIEKVSALLLTSSFEGFPMTLLEALSWGIPCISADCVSGPADIIQPDVNGHLYQPGDIAGFVTLLNKYIAGEIHIEHEKIPASIDEFYQSKYYDRLHKVIISAISRRK | 5.73 ± 0.45 h | – | – | 6.05 ± 0.67 h | 5.9 ± 0.06 h | – | 10.9 ± 0.65 h | 6.03 ± 1.8 h | 12.1 ± 1.4 h | 6.21 ± 0.58 h | 11.8 ± 0.7 h | 2.96 ± 0.11 h |
| MRKGCFGLVSLVLLLLVGCRSHPEIPVNDEQSLVMESSLLAAGISAEKPFLSTSDIQPSASSTLYNERQEPVTVHYRFYWYDARGLEMHPLERPRSVTIPAHSAVTLYGSANFLGAHKVRLYLYL | 5.4 ± 0.33 h | – | 5.89 ± 0.42 h | 5.86 ± 0.36 h | 5.34 ± 0.22 h | 5.52 h | 9.893 ± 0.025 h | 5.33 h | 10.1 h | 5.79 h | 11.8 ± 0.32 h | 2.84 h |
| MSALNKKSFLTYLKEGGIYVVLLVLLAIIIFQDPTFLSLLNLSNILTQSSVRIIIALGVAGLIVTQGTDLSAGRQVGLAAVVAATLLQSMDNANKVFPEMATMPIALVILIVCAIGAVIGLINGLIIAYLNVTPFITTLGTMIIVYGINSLYYDFVGASPISGFDSGFSTFAQGFVALGSFRLSYITFYALIAVAFVWVLWNKTRFGKNIFAIGGNPEAAKVSGVNVGLNLLMIYALSGVFYAFGGMLEAGRIGSATNNLGFMYELDAIAACVVGGVSFSGGVGTVIGVVTGVIIFTVINYGLTYIGVNPYWQYIIKGAIIIFAVALDSLKYARKK | 3.21 h | 6.19 h | 6.83 ± 0.54 h | 6.18 h | 6.18 ± 0.67 h | – | 12 ± 0.2 h | – | – | 5.49 ± 1.3 h | – | 3.05 ± 0.18 h |
| MKKIPLGTTDITLSRMGLGTWAIGGGPAWNGDLDRQICIDTILEAHRCGINLIDTAPGYNFGNSEVIVGQALKKLPREQVVVETKCGIVWERKGSLFNKVGDRQLYKNLSPESIREEVAASLQRLGIDYIDIYMTHWQSVPPFFTPIAETVAVLNELKSEGKIRAIGAANVDADHIREYLQYGELDIIQAKYSILDRAMENELLPLCRDNGIVVQVYSPLEQGLLTGTITRDYVPGGARANKVWFQRENMLKVIDMLEQWQPLCARYQCTIPTLALAWILKQSDLISILSGATAPEQVRENVAALNINLSDADATLMREMAEALER | 3.71 ± 1.3 h | – | 4.29 ± 0.48 h | – | 4.19 ± 0.18 h | 5.64 ± 1.4 h | 8.09 ± 1.9 h | 3.97 ± 0.2 h | 6.75 h | 6.344 ± 0.018 h | 11.9 ± 0.44 h | 2.96 ± 0.2 h |

Source: the supplement of paper PMC11246515
